Measurements from US20240247042A1, “GLUCAGON LIKE PEPTIDE COMPOUNDS” (Novartis AG, priority 2021, published 2024).

What was measured:
[1] = target: cynomolgus GLP1 receptor (cynoGLP1R), on HEK293-cynoGLP1R F6 cells (cynomolgus) (UniProt F8V479); experiment: cell-based or functional assay
[2] = target: T1, mouse GLP1 receptor (mGLP1R) (Mus musculus, UniProt O35659); experiment: Mouse GLP1R cAMP agonist assay; format: cell-based; settings: percent of GLP1(7-36) EC100
T1 construct: host or cells: HEK293T CRE-Luc (called HEK293), clone C3
T1 sequence (O35659 22-463): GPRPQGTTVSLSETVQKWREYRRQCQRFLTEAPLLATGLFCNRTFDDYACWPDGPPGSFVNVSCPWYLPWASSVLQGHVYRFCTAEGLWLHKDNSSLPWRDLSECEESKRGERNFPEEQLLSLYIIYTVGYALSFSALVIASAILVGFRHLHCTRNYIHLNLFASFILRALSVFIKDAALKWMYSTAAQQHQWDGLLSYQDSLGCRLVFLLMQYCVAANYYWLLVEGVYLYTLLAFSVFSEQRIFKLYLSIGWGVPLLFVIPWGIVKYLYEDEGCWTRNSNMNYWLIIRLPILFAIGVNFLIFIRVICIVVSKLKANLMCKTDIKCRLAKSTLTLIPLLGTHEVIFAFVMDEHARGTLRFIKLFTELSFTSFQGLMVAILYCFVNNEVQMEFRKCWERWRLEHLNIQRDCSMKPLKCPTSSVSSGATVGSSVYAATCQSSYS
Procedure: Compounds described herein were tested in the following cellular assays that measures the intracellular cAMP concentration. The cAMP is generated by the activation of GLP1R. EC50 is defined as the concentration of the compound that leads to half of the maximum response (after baseline correction).
The following day, cells were transfected as follows. The DNA complex was prepared as 0.020 μg/μL by adding 37 μg of plasmid DNA encoding mouse GLP1R cDNA (GeneCopoeia, cat #EX-Mm23901-M67; NCBI Reference Sequence: NM_021332.2) in 1758 μL Opti-MEM solution. Then, 112 μL of FuGENE® HD reagent were added to that by mixing carefully. After 5-10 min incubation at RT, 850 μL of DNA complex per well were added to the cells, and mixed thoroughly.

[3] = target: T2, human GLP1R (Homo sapiens, UniProt P43220); experiment: Human GLP1R DERET internalization assay; format: cell-based
T2 sequence (P43220 24-463): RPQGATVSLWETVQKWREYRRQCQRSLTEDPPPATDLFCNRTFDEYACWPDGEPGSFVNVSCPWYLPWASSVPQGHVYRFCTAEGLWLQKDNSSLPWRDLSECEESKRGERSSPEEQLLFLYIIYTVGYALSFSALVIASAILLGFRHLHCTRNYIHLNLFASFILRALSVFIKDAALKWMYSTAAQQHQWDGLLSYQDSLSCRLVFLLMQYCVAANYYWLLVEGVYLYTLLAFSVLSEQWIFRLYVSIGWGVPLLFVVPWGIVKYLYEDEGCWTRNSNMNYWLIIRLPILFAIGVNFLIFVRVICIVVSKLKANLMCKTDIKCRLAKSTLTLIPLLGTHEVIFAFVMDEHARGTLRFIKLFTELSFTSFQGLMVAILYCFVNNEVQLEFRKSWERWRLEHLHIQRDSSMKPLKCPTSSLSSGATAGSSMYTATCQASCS

[4] = target: T2, human GLP1R; experiment: Human GLP1R DERET recycling assay; format: cell-based
Procedure: The extent to which agonists internalize or allow recycling of the human GLP1R was determined based on an optimized version of a RealTime FRET-based ‘DERET’ (Dissociation Enhanced Resonance Energy Transfer) assay. The technology relies on labeling of the SNAP-tagged GPCR with a SNAP-Lumi-Terbium (donor fluorophore, Cisbio, cat #SSNPTBD). The compounds are incubated with the cells over-expressing the GPCR of interest in the presence of an excess of fluorescein (acceptor fluorophore). When the GPCR is on the cell surface, the donor signal is quenched by the acceptor and the donor/acceptor ratio is low. As the GPCR internalizes, the donor signal is no longer quenched, and the acceptor is no longer excited so the donor/acceptor ratio increases. The addition of an excess of antagonist blocks further receptor internalization, allowing the receptor to recycle back to the membrane leading to a subsequent reduction in the donor/acceptor ratio. […] To generate triplicate dose response curves, compounds were serially diluted 3-fold in assay buffer, then added to the cell assay plate to a final volume of 40 μL and final top concentrations starting at 3 μM or less (depending on the case). […] EC0 wells with buffer only were also included. The plate FRET fluorescence was measured immediately using a Perkin Elmer Envision with LANCE/DELFIA D400 single mirror, excitation filter X320, and emission filters M615_203 (donor emission) and M515 (acceptor emission), and then measured every 30 min. […] Plates were kept at 37° C. between reads. Data was expressed as the ratio of donor/acceptor emissions using Microsoft Excel and plotted in GraphPad Prism.
Using this model, we determined a T1/2 rate at which the receptor recycled back to the membrane. We also determined a maximum percentage of receptor recycled as a proportion of the amount internalized initially.
The lower the internalization rate and the faster the receptor recycling rate the more the receptor is retained at the membrane.

[5] = Acute food intake study in DIO mice; format: in vivo, C57BL/6 mice; settings: single s.c., 120 μg/kg
Procedure: Males 24-30 weeks of age were used in the studies. Animals were housed one per cage in a normal light cycle (6:00 am-6:00 pm lights on, otherwise lights off) room, under an approved IACUC protocol. […] At the start of the study, food weight was recorded and animals were subcutaneously dosed with a test compound.

[6] = Efficacy study: body weight loss in DIO mice; format: in vivo, C57BL/6 mice; settings: s.c., 120 μg/kg QD, Day 30
Procedure: Males 24-30 weeks of age were used in the studies (n=7/group). Animals were housed one per cage in a normal light cycle room, under an approved IACUC protocol. […] Compound(s) or vehicle were given QD or when indicated 03D (every 3 days). […] Body weight and food intake were measured daily.

[7] = Tolerability assessment: emesis and FI in obese monkeys; format: in vivo; settings: single dose s.c. 30 μg/kg
Source text: Efficacy was defined as a reduction in FI and BW. Tolerability, assessed as reduced and/or absence of emesis and retained interest in a selection of fruits and vegetables and peanuts as treats.

[8] = target: T3, human GLP1 receptor (hGLP1R) fused with a SNAP tag, on HEK293-SNAP-hGLP1R-GloSensor cells (human, UniProt P43220 24-463); experiment: cell-based or functional assay
[9] = target: T4, mouse GLP1 receptor (mGLP1R), on HEK293-mGLP1R CRE-Luc (Clone C3) cells (mouse, UniProt O35659 22-463); experiment: cell-based or functional assay
T4 sequence (looked up): T1 sequence (O35659 22-463)

[10] = target: human GLP1R (hGLP1R) with a Prolink tag, on CHO-hGLP1R-β-arrestin cells (human, UniProt P43220 24-463); experiment: cell-based or functional assay
[11] = target: cynomolgus GLP1 receptor (cynoGLP1R), on HEK293-cynoGLP1R F6 cells (cynomolgus, UniProt F8V479 24-463); experiment: cell-based or functional assay
[12] = target: T3, human GLP1 receptor (hGLP1R) fused with …; experiment: cell-based or functional assay; remark: listed apart in the source
[13] = target: T3, human GLP1 receptor (hGLP1R) fused with …; experiment: cell-based or functional assay; remark: listed apart in the source

## GLP1(7-36) peptide (from UniProt P01275 98-127) (ligand)
[1]
  cynoGLP1R cAMP assay (HTRF): EC50 mean: 0.0217 nM
  cynoGLP1R cAMP assay (HTRF): Emax mean, % of GLP1(7-36): 100%

## semaglutide
[2]
  Emax mean: 106%
[3]
  Emax mean: 91%
[4]
  Receptor recycled mean: 64%
  T1/2 mean: 1.677 h
[5]
  FI @ 24 h: −86 ± 1 % baseline
[6]
  Weight loss: −17.8 ± 1.2 % baseline
[7]
  FI reduction observed: Yes

## semaglutide acetate salt (peptide)
[1]
  cynoGLP1R cAMP assay (HTRF): EC50 mean: 0.0491 nM

B1: Compound 6 (peptide)
peptide: HXEGTFTSDVSSYLEGQAAKEFIAWLVRGRG
modifications: Aib at position 8 (GLP-1 numbering); side-chain NH of the Lys residue acylated, via a PEG24 linker, with the 11-carbamoyl-henicosane-1,11,21-tricarboxylic acid moiety (from NHS ester Intermediate 29)
[8]
  hGLP1R cAMP assay (GloSensor): EC50 mean: 0.00573 nM
[9]
  mGLP1R cAMP assay (HTRF): EC50 mean: 0.034 nM
[10]
  β-arrestin recruitment (PathHunter): EC50 mean: 70 nM

B2: Compound 5 (peptide)
peptide: B1 peptide
modifications: Aib at position 8 (GLP-1 numbering); side-chain NH of the Lys residue acylated, via a PEG2 linker, with 2-undecyltridecanedioic acid (from NHS ester Intermediate 22)
[11]
  cynoGLP1R cAMP assay (HTRF): EC50 mean: 0.577 nM
  cynoGLP1R cAMP assay (HTRF): Emax mean, % of GLP1(7-36): 103%
[12]
  receptor recycling (DERET, after Exendin 9-39): T1/2 mean: 2.25 h

B3: Compound 8 (peptide)
peptide: B1 peptide
modifications: Aib at position 8 (GLP-1 numbering); side-chain NH of the Lys residue acylated, via a PEG24 linker, with the 14-carbamoyl-heptacosane-1,14,27-tricarboxylic acid moiety (from NHS ester Intermediate 43)
[8]
  hGLP1R cAMP assay (GloSensor): EC50 mean: 0.105 nM

B4: Compound 1 (Diastereomeric Mixture) (peptide)
peptide: B1 peptide
modifications: Aib at position 8 (GLP-1 numbering); side-chain NH of the Lys residue acylated, via a PEG24 linker, with 2-undecyltridecanedioic acid (from NHS ester Intermediate 6); diastereomeric mixture at the quaternary carbon of the fatty acid
[8]
  hGLP1R cAMP assay (GloSensor): Emax mean, % of GLP1(7-36): 105%
[10]
  β-arrestin recruitment (PathHunter): EC50 mean: 192 nM

B5: Compound 4 (peptide)
peptide: B1 peptide
modifications: Aib at position 8 (GLP-1 numbering); side-chain NH of the Lys residue acylated, via a PEG8 linker, with 2-undecyltridecanedioic acid (from NHS ester Intermediate 19)
[9]
  mGLP1R cAMP assay (HTRF): EC50 mean: 0.428 nM
[10]
  β-arrestin recruitment (PathHunter): EC50 mean: 235 nM

B6: Compound 9 (peptide)
peptide: B1 peptide
modifications: Aib at position 8 (GLP-1 numbering); side-chain NH of the Lys residue acylated, via a PEG24 linker, with the 15-carbamoyl-nonacosane-1,15,29-tricarboxylic acid moiety (from NHS ester Intermediate 50)
[9]
  mGLP1R cAMP assay (HTRF): EC50 mean: 0.686 nM
[10]
  β-arrestin recruitment (PathHunter): EC50 mean: > 2000 nM
  β-arrestin recruitment (PathHunter): Emax mean, % of GLP1(7-36): 37%
[13]
  receptor internalization (DERET): Emax mean, % of GLP1(7-36): 22%

B7: Compound 2: Diastereomer 1 (peptide)
peptide: B1 peptide
modifications: Aib at position 8 (GLP-1 numbering); side-chain NH of the Lys residue acylated, via a PEG24 linker, with (S)-2-undecyltridecanedioic acid (from NHS ester Intermediate 15A, S-enantiomer)
[10]
  β-arrestin recruitment (PathHunter): EC50 mean: 133 nM
[13]
  receptor internalization (DERET): EC50 mean: 331 nM

B8: Compound 7 (peptide)
peptide: B1 peptide
modifications: Aib at position 8 (GLP-1 numbering); side-chain NH of the Lys residue acylated, via a PEG24 linker, with the 12-carbamoyl-tricosane-1,12,23-tricarboxylic acid moiety (from NHS ester Intermediate 36)
[10]
  β-arrestin recruitment (PathHunter): EC50 mean: 178 nM
[13]
  receptor internalization (DERET): EC50 mean: 367 nM

B9: Compound 3: Diastereomer 2 (peptide)
peptide: B1 peptide
modifications: Aib at position 8 (GLP-1 numbering); side-chain NH of the Lys residue acylated, via a PEG24 linker, with (R)-2-undecyltridecanedioic acid (from NHS ester Intermediate 15B, R-enantiomer)
[13]
  receptor internalization (DERET): EC50 mean: 372 nM
